Data from patent US20240261332A1.

Target: CD19 (human) (UniProt P15391)
Assay: cell-based or functional assay

Chain of UniProt P15391 (P15391 20-556): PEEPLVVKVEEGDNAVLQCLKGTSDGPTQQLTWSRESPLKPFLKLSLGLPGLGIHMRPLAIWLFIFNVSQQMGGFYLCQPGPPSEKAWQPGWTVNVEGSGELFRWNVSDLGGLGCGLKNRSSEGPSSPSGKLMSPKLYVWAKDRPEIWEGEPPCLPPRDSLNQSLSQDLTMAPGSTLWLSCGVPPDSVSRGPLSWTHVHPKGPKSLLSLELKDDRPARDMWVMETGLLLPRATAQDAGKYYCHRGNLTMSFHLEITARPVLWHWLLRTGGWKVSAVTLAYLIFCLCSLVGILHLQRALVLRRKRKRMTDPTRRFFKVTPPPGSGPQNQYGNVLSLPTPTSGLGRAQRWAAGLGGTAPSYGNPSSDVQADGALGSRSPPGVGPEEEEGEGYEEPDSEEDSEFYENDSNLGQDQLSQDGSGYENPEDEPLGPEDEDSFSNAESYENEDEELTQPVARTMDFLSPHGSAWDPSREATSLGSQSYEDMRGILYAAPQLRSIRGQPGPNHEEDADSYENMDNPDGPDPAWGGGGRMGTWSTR

## anti-CD19 activating CAR (19scFv.CD28.zeta) (from UniProt P10747 153-220; P20963 52-164)
  portion of CAR19-NK cells that acquired CD19 on their surface (trogocytosis) within minutes of co-culture with Raji targets, flow cytometry: 75%
